Positions of bridges follow the written chain, without caps; N, C: chain ends. Residues, ends and D or L forms follow the SMILES beside them. *: point of attachment. DOTA = O=C(O)CN1CCN(CC(=O)O)CCN(CC(=O)*)CCN(CC(=O)O)CC1
Experiments:
[1] = in vitro; format: in vitro ADME; details: mouse, serum
Method: Radiolabeled AgRP* peptides were incubated in 0.01 M PBS (pH 7.4) at 37°C for 24 h and monitored for degradation by HPLC. Stability was also tested by incubating 0.74 MBq (20 μCi) ^111In-DOTA-AgRP-7C or ^111In-DOTA-AgRP-6E in 400 μL of mouse serum at 37°C for 2 h. Afterward, the mixture was re-suspended in 0.5 mL of DMF containing 5 μL of Triton X-100 and centrifuged at 16,000 g for 2 min. The supernatant, which contained >95% of the starting radioactivity, was filtered using a 10 K NanoSep device (Pall Corporation, East Hills, NY, USA). Greater than 99% of the radioactive material passed through this filter. The samples were analyzed by radio-HPLC, and the percentage of intact peptide was determined by quantifying peaks corresponding to the intact peptide and to the degradation products.
Figure 1 Stability analysis of ^111In-DOTA-AgRP-7C (a) and (b), and ^111In-DOTA-AgRP-6E (c) and (d) in PBS and mouse serum. The two radiopeptides were incubated with PBS for 24 h at […], and mouse serum for 2 h at 37°C.

[2] = in vivo; details: female, athymic nu/nu, mouse, iv, total radioactivity
Method: All animal studies were carried out in compliance with federal and local institutional rules for animal experimentation. Approximately, 10^7 U87MG cells were suspended in PBS and subcutaneously implanted in the left shoulders of female athymic nu/nu mice. Tumors were allowed to grow to a size of 0.5 cm (2-3 weeks) before imaging experiments were performed. For biodistribution studies, U87MG tumor-bearing mice (n = 3 for each group) were injected with ^111In-DOTA-AgRP-7C (0.259–0.37 MBq, […]) or ^111In-DOTA-AgRP-6E (0.296–0.444 MBq, 8–12 μCi) via the tail vein and sacrificed at different time points (0.5, 2, 24, and 48 h) after injection (p.i.). Tumor and normal tissues of interest were removed and weighed, and their radioactivity was measured with a γ-counter. Radioactivity uptake was expressed as the percent injected dose per gram of tissue (%ID/g). To test the in vivo αvβ3 integrin targeting specificity of the probe, U87MG tumor-bearing mice (n = 3 for each group) were injected via the tail vein with a mixture of ^111In-DOTA-AgRP-7C (0.259–0.37 MBq, 7–10 μCi) and 330 μg of c(RGDyK). The mice were sacrificed at 2 h p.i. and the biodistribution of the radiolabeled peptide was measured as above.
Quantitative data were expressed as mean ± SD. Means were compared using the Student t-test. A 95% confidence level was chosen to determine the significance between groups, with P values of less than 0.05 indicating significant differences.

Question: Which results are given for `CC(C)C[C@@H]1NC(=O)[C@@H]2CSSC[C@@H]3NC(=O)[C@H]([C@@H](C)O)NC(=O)[C@H](C)NC(=O)[C@H](C)NC(=O)[C@@H]4CCCN4C(=O)[C@H](CC(=O)O)NC(=O)[C@H](CSSC[C@H](NC(=O)CNC(=O)CN4CCN(CC(=O)O)CCN(CC(=O)O)CCN(CC(=O)O)CC4)C(=O)N[C@@H](C(C)C)C(=O)N[C@@H](CCCNC(=N)N)C(=O)N[C@@H](CC(C)C)C(=O)N[C@@H](Cc4c[nH]cn4)C(=O)N[C@@H](CCC(=O)O)C(=O)N[C@@H](CO)C(=O)N2)NC(=O)[C@H](CSSC[C@@H](C(=O)N[C@@H](CCCNC(=N)N)C(=O)O)NC(=O)[C@H](Cc2ccc(O)cc2)NC(=O)[C@@H]2CSSC[C@H](NC(=O)[C@H](Cc4ccc(O)cc4)NC3=O)C(=O)N[C@@H](C(C)C)C(=O)N[C@@H](CCC(=O)O)C(=O)N[C@@H](CCCNC(=N)N)C(=O)NCC(=O)N[C@@H](CC(=O)O)C(=O)NCC(=O)N[C@@H](CC(N)=O)C(=O)N[C@@H](CCCNC(=N)N)C(=O)N[C@@H](CCCNC(=N)N)C(=O)N2)NC(=O)[C@@H]2CCCN2C(=O)[C@H](C(C)C)NC(=O)[C@H](CCC(N)=O)NC(=O)[C@H](CCC(N)=O)NC(=O)CNC1=O` [111In-DOTA-AgRP-6E, metal not drawn] ({DOTA}-GCVRLHESCLGQQVPCCDPAATCYCVERGDGNRRCYCR-OH; disulfide 2-17, 9-23, 16-37, 25-35)?
Answer: remaining at 2 h, 1.85 MBq/mL [1]: > 95%; tissue uptake at 0.5 h ([2]; Blood uptake): 1.27 ± 0.53 %ID/g; tissue uptake at 2 h ([2]; Blood uptake): 0.06 ± 0.05 %ID/g; tissue uptake at 24 h ([2]; Blood uptake): 0.01 %ID/g; tissue uptake at 0.5 h ([2]; Bone uptake): 1.18 ± 0.15 %ID/g; tissue uptake at 2 h ([2]; Bone uptake): 0.56 ± 0.1 %ID/g; tissue uptake at 24 h ([2]; Bone uptake): 0.36 ± 0.04 %ID/g; tissue uptake at 0.5 h ([2]; Brain uptake): 0.06 ± 0.01 %ID/g; tissue uptake at 2 h ([2]; Brain uptake): 0.02 ± 0.01 %ID/g; tissue uptake at 24 h ([2]; Brain uptake): 0.02 ± 0.01 %ID/g; tissue uptake at 0.5 h ([2]; Heart uptake): 0.8 ± 0.24 %ID/g; tissue uptake at 2 h ([2]; Heart uptake): 0.18 ± 0.06 %ID/g; tissue uptake at 24 h ([2]; Heart uptake): 0.12 ± 0.02 %ID/g; tissue uptake at 0.5 h ([2]; Intestine uptake): 2.04 ± 0.54 %ID/g; tissue uptake at 2 h ([2]; Intestine uptake): 1.13 ± 0.14 %ID/g; tissue uptake at 24 h ([2]; Intestine uptake): 0.93 ± 0.04 %ID/g; tissue uptake at 0.5 h ([2]; Kidneys uptake): 15.4 ± 3.19 %ID/g; tissue uptake at 2 h ([2]; Kidneys uptake): 14.7 ± 1.98 %ID/g; tissue uptake at 24 h ([2]; Kidneys uptake): 6.87 ± 1.19 %ID/g; tissue uptake at 0.5 h ([2]; Liver uptake): 0.87 ± 0.2 %ID/g; tissue uptake at 2 h ([2]; Liver uptake): 0.52 ± 0.01 %ID/g; tissue uptake at 24 h ([2]; Liver uptake): 0.48 ± 0.02 %ID/g; tissue uptake at 0.5 h ([2]; Lung uptake): 1.86 ± 0.56 %ID/g; tissue uptake at 2 h ([2]; Lung uptake): 0.54 ± 0.12 %ID/g; tissue uptake at 24 h ([2]; Lung uptake): 0.27 ± 0.02 %ID/g; tissue uptake at 0.5 h ([2]; Muscle uptake): 0.64 ± 0.09 %ID/g; tissue uptake at 2 h ([2]; Muscle uptake): 0.15 ± 0.07 %ID/g; tissue uptake at 24 h ([2]; Muscle uptake): 0.07 ± 0.01 %ID/g; tissue uptake at 0.5 h ([2]; Pancreas uptake): 0.57 ± 0.23 %ID/g; tissue uptake at 2 h ([2]; Pancreas uptake): 0.2 ± 0.06 %ID/g; tissue uptake at 24 h ([2]; Pancreas uptake): 0.14 ± 0.01 %ID/g; tissue uptake at 0.5 h ([2]; Spleen uptake): 1.36 ± 0.26 %ID/g; tissue uptake at 2 h ([2]; Spleen uptake): 0.83 ± 0.05 %ID/g; tissue uptake at 24 h ([2]; Spleen uptake): 0.65 ± 0.06 %ID/g; tissue uptake at 0.5 h ([2]; Stomach uptake): 2.02 ± 0.47 %ID/g; tissue uptake at 2 h ([2]; Stomach uptake): 0.87 ± 0.14 %ID/g; tissue uptake at 24 h ([2]; Stomach uptake): 0.53 ± 0.02 %ID/g; tissue uptake at 0.5 h ([2]; Tumor uptake): 1.76 ± 0.34 %ID/g; tissue uptake at 2 h ([2]; Tumor uptake): 1.21 ± 0.21 %ID/g; tissue uptake at 24 h ([2]; Tumor uptake): 0.89 ± 0.06 %ID/g; tissue to tissue ratio at 0.5 h ([2]; Tumor-to-blood ratio): 1.71 ± 1.21; tissue to tissue ratio at 2 h ([2]; Tumor-to-blood ratio): 33 ± 23.3; tissue to tissue ratio at 24 h ([2]; Tumor-to-blood ratio): 142 ± 3.39; tissue to tissue ratio at 0.5 h ([2]; Tumor-to-muscle ratio): 2.75 ± 0.28; tissue to tissue ratio at 2 h ([2]; Tumor-to-muscle ratio): 9.2 ± 3.88; tissue to tissue ratio at 24 h ([2]; Tumor-to-muscle ratio): 13.1 ± 1.94

Reference: publication PMC3336217, “^111In-Labeled Cystine-Knot Peptides Based on the Agouti-Related Protein for Targeting Tumor Angiogenesis” (Journal of Biomedicine and Biotechnology, 2012)
